Patent US20210246218A1 (LYVGEN BIOPHARMA SUZHOU, published 2021)

Tests used:
[1] = target: T1, human FcγRIIB-Ile232 on CHO-K1 cells (human, UniProt P31994 43-310); experiment: flow cytometry on CHO-huFcγRIIB cells, anti-human Fc F(ab')2
T1 construct: whole, on cells; also called CHO-K1-huFcγRIIB-Ile232; CHO-K1-huFcγRIIB
T1 sequence (looked up): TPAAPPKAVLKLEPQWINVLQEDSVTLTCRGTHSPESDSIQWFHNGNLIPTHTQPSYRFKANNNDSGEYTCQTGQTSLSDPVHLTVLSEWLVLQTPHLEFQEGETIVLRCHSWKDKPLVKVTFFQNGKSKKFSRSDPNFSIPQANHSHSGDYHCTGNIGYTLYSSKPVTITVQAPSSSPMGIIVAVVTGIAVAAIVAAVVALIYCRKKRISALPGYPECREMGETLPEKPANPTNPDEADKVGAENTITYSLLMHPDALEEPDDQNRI
Procedure: The plate was mixed and incubated in the dark for 2 hours at 4° C.

human CD20 protein = target: T2, human CD20 protein (human, UniProt P11836 1-297, limits assumed); experiment: ELISA, protein coated at 1 µg/mL
T2 sequence (looked up): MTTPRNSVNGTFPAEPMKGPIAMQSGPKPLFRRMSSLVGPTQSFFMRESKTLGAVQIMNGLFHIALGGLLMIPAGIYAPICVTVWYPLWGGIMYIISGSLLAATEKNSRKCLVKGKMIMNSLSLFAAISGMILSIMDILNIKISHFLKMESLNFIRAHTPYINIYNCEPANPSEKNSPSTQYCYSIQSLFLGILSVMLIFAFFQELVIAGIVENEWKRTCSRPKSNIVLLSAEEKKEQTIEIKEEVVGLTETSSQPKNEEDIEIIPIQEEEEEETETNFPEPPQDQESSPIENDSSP
Procedure: (§1) The plate was decanted and washed once; assay diluent was added at 200 μL/well. After a 1-hour incubation at room temperature, the plate was washed with PBST one time. […] These samples were added into the plate 50 μL/well. The plate was incubated 1 hour at room temperature and then washed three times with PBST. Goat anti-human IgG-H+L HRP-conjugated at 1:100,000 dilution or goat anti-mouse IgG (H+L) secondary antibody, HRP, at 1:50,000 dilution was added to the plate at 100 μL/well. The plate was incubated 1 hour at room temperature followed by washing with PBST four times. The TMB substrate solution was added 100 μL/well. The color was permitted to develop for 15 minutes and then 100 μL/well 2N H₂SO₄ was added to terminate the reaction. Absorbance at 450 nm and 620 nm was determined by a Tecan F200 Pro reader.

human CD40 protein = human CD40 protein (human, UniProt P25942 21-193); experiment: ELISA, protein coated at 1 µg/mL
Chain of human CD40 protein (P25942 21-193 limits assumed): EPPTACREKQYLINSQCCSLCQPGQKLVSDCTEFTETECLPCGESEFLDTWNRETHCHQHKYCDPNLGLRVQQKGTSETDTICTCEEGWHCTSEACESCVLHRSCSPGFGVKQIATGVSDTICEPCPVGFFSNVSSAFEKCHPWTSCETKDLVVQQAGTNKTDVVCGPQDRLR
Procedure: as §1

human VISTA protein = human VISTA protein (human, UniProt Q9H7M9 33-194); experiment: ELISA, protein coated at 1 µg/mL
Procedure: as §1

human CD19 protein = target: T3, human CD19 protein (human, UniProt P15391 20-291); experiment: ELISA, protein coated at 1 µg/mL
T3 sequence (looked up): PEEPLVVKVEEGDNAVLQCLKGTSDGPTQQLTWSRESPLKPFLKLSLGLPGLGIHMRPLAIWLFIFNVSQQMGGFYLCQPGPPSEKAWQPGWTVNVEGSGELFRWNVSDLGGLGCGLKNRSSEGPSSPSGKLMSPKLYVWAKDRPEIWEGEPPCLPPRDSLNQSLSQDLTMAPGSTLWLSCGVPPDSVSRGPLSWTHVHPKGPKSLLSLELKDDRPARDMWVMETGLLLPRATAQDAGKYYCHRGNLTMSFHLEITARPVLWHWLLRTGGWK
Procedure: as §1

human PD-L1 protein = human PD-L1 protein (human, UniProt Q9NZQ7 19-238); experiment: ELISA, protein coated at 1 µg/mL
Chain of human PD-L1 protein (Q9NZQ7 19-238 limits assumed): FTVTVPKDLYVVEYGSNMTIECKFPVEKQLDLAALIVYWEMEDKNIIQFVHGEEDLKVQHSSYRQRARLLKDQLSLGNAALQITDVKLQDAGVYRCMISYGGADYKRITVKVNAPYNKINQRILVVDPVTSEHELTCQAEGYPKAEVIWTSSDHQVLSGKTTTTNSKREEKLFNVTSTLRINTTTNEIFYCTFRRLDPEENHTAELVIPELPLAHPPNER
Procedure: as §1

human B7-H4 protein = target: T4, human B7-H4 protein (human, UniProt Q7Z7D3 29-258, limits assumed); experiment: ELISA, protein coated at 1 µg/mL
T4 sequence (looked up): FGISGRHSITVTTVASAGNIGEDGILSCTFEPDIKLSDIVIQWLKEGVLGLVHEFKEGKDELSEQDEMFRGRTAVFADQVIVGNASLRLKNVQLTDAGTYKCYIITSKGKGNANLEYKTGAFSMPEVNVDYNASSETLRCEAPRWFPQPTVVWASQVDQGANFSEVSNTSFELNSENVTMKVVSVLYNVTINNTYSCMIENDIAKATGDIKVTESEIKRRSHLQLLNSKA
Procedure: as §1

human CD27 protein = human CD27 protein (human, UniProt P26842 21-192, limits assumed); experiment: ELISA, protein coated at 1 µg/mL
Chain of human CD27 protein (P26842 21-192 limits assumed): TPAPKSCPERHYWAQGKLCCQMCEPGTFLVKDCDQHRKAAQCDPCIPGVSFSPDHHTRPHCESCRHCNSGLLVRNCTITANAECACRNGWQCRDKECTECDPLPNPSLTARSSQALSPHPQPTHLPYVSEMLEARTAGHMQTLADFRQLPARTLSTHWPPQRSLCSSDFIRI
Procedure: as §1

Ly110 = target: T5, Ly110; experiment: ELISA, clone 3712-IgG1v coated, CD137 protein titrated (EC50 is a concentration of the CD137 protein); full sigmoid, plateau about 1.9
T5 chain: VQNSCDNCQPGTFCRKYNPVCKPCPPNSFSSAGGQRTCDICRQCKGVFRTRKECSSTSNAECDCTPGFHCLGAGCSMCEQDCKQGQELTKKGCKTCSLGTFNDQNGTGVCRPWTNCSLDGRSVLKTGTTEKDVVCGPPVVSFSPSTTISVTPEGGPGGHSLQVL
Procedure: The plate was decanted and washed once; assay diluent was added 200 μL/well. After one-hour incubation at room temperature, the plate was washed with PBST one time. CD137 receptor human/mouse chimeras were diluted in assay diluent to 100 or 10 μg/mL, and then a 4-fold serial dilution in assay diluent for 11 points to final concentrations of 100000, 25000, 6250, 1562.5, 390.63, 97.66, 24.41, 6.10, 1.53, 0.38 and 0.095 ng/mL or 10000, 2500, 625, 156.25, 39.06, 9.77, 2.44, 0.61, 0.15, 0.038 and 0.0095 ng/mL. The diluted CD137 receptor was added to the assay plate, 50 μL/well, in duplicate. The plate was incubated one hour at room temperature and then washed three times with PBST. Goat anti-human IgG-H+L HRP conjugated at 1:100,000 20 dilution was added to the plate at 100 μL/well. The plate was then incubated one hour at room temperature followed by washing with PBST four times. The TMB substrate solution was added at 100 μL/well. The color was allowed to develop for 15 minutes, and was stopped with 100 μL/well 2N H2SO4. Absorbance at 450 nm and 620 nm was determined by a Tecan F200 Pro reader.

binding result [1]: binds
EC50 (Ly110): 0.101 µg/mL
B1: Clone 3712-IgG1v (IgG1v/kappa) (antibody)
heavy: QVQLVQSGAEVKKPGASVKVSCKASGYTFAGFEMHWVRQAPGQGLEWMGAIDPKTGGTDYNQKFKDRVTMTRDTSISTAYMELSRLRSDDTAVYYCARDLGYFDVWGQGTLVTVSSASTKGPSVFPLAPSSKSTSGGTAALGCLVKDYFPEPVTVSWNSGALTSGVHTFPAVLQSSGLYSLSSVVTVPSSSLGTQTYICNVNHKPSNTKVDKKVEPKSCDKTHTCPPCPAPELLGPSVFLFPPKPKDTLMISRTPEVTCVVVDVEHEDPEVKFNWYVDGVEVHNAKTKPREEQYNSTYRVVSVLTVLHQDWLNGKEYKCKVSNKALPAPIEKTISKAKGQPREPQVYTLPPSREEMTKNQVSLTCLVKGFYPSDIAVEWESNGQPENNYKTTPPVLDSDGSFFLYSKLTVDKSRWQQGNVFSCSVMHEALHNHYTQKSLSLSPGK
light: DIQMTQSPSSLSASVGDRVTITCRASQDIRSNLNWYQQKPGGAVKLLIYYTSRLHSGVPSRFSGSGSGTDYTLTISSLQPEDFATYFCQQSEKLPRTFGGGTKVEIRRTVAAPSVFIFPPSDEQLKSGTASVVCLLNNFYPREAKVQWKVDNALQSGNSQESVTEQDSKDSTYSLSSTLTLSKADYEKHKVYACEVTHQGLSSPVTKSFNRGEC
notes: copies: 2 + 2
binding result (human CD20 protein): no binding (tested: 10 µg/mL and 1 µg/mL)
binding result (human CD40 protein): no binding (tested: 10 µg/mL and 1 µg/mL)
binding result (human VISTA protein): no binding (tested: 10 µg/mL and 1 µg/mL)
binding result (human CD19 protein): no binding (tested: 10 µg/mL and 1 µg/mL)
binding result (human PD-L1 protein): no binding (tested: 10 µg/mL and 1 µg/mL)
binding result (human B7-H4 protein): no binding (tested: 10 µg/mL and 1 µg/mL)
binding result (human CD27 protein): no binding (tested: 10 µg/mL and 1 µg/mL)
